Data as given in US9399667B2, “Peptides derived from cytotoxicity receptor natural killer protein 44 NKP44” (03;b. G. NEGEV TECHNOLOGIES AND APPLICATIONS LTD., AT …, priority 2012, dated 2016).

How the values were obtained:
NKp46D2-Ig = biological target: T1, NKp46D2-Ig (Homo sapiens, UniProt O76036); test: Effect of peptides on NKp46D2-Ig binding to target cells (flow cytometry); conditions: for Effect on NKp46D2L binding to cells: 1.5 hr, compared to staining without peptide or with non-affecting peptides, number in brackets is an undefined grade
T1 construct: made in house
T1 sequence (O76036 with tags, fused parts or gaps isoform O76036-6): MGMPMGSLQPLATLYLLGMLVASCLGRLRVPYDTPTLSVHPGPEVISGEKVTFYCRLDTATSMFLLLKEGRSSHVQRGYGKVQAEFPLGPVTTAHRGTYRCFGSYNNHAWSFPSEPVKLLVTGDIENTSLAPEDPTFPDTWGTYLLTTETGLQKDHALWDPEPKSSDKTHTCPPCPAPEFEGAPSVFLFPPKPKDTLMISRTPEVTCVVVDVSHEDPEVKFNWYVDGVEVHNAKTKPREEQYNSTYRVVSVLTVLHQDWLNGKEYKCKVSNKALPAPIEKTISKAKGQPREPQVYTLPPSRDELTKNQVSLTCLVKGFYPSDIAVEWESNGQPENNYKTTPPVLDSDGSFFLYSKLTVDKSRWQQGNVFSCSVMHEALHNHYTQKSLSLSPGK
Method: (§1) Binding of rNK receptors and binding inhibition assays were performed as follows: 1×10^5 target cells were incubated with 2 μg of the NK receptor-Ig and 5 or 10 μg of the peptides in staining solution consisting of 0.5% (w/v) BSA and 0.05% sodium azide in PBS at 4° C. for 1.5 hrs. Then, cells were washed and stained with APC-conjugated anti-human IgG. Dead cells were detected with propidium iodide (PI). Percentage of inhibition was calculated as the percent of the cell population showing a reduced staining by the NK receptor-Ig in the presence of peptides as compared to reference positive staining by the NK receptor-Ig without peptides. […] Flow cytometry was performed using a FACSCanto II or FACScalibur (BD Bioscience) and results were analyzed using Diva 6.1.2 or CellQuest 3.3, respectively.
(§2) Target cells were incubated for 1.5 hr with 2 μg/well NKp46D2-Ig and 10 μg/well of each peptide. NKp46D2-Ig binding intensity was determined by flow cytometry, using fluorescent 2Ab (goat anti-mouse monoclonal antibody).
(§3) Target cells were stained with 2 μg/well of NK receptor-Igs in the presence of 10 μg/well of SEQ ID NO: 4, 5, 55 (15mer-shared core sequence between SEQ ID NO:4 and 5), or SEQ ID NO: 1. The NK receptor-Ig staining intensities were determined by flow cytometry, using fluorescent APC-conjugated F(ab′)2 goat anti-human IgG.

[1] = test system: human cancer cells, MIN6 murine beta cell line and primary mouse beta cells; test: Direct binding of biotin-conjugated NKp46-derived peptides to target cells (flow cytometry, fluorescent Streptavidin); conditions: biotin-conjugated peptide 10 μg/well, number in brackets is an undefined grade
LIR1-Ig = biological target: T2, LIR1-Ig (Homo sapiens, UniProt Q8NHL6); test: Effect of peptides on LIR1-Ig binding to target cells (flow cytometry); conditions: for Binding of LIR1-Ig in the presence of peptide: Example 1, FIGS. 3 and 5, HeLa cells
T2 construct: made in house
T2 sequence (Q8NHL6 24-461 limits assumed): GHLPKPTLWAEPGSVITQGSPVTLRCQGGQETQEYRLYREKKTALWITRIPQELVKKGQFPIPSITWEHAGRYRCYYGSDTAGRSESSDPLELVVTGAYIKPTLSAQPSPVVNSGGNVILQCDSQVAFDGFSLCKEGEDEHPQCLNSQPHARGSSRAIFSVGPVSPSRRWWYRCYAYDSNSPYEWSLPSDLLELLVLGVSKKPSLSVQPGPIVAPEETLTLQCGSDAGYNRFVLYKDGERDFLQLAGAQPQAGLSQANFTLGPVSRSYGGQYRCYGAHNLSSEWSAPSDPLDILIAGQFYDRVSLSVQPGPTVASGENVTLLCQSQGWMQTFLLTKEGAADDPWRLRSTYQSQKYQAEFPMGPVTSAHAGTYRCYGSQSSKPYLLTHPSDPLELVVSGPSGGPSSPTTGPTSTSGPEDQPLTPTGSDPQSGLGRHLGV
Method: as §1, with “target cells were incubated with 2 μg of the NK receptor-Ig and 5 or 10 μg of the peptides in staining solution consisting” left out
as §2, §3

NKp46-Ig = biological target: T3, NKp46-Ig (Homo sapiens, UniProt O76036); test: Effect of peptides on NKp46-Ig binding to tumor cells (flow cytometry); conditions: Example 3, FIG. 9B/9C; 10 μg/well peptide; to a lesser extent than NKp46D2-Ig binding
T3 construct: fusion proteins containing the extracellular domains NKp30, NKp44 or NKp46 fused to the Fc portion of human IgG1; made in house
T3 sequence (O76036 22-258 limits assumed): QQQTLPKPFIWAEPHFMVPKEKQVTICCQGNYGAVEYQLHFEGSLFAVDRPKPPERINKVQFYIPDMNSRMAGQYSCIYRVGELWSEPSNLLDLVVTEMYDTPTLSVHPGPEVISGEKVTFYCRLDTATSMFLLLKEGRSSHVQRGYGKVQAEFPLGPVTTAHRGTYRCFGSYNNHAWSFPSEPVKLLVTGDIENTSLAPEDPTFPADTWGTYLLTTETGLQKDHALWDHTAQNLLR
Method: as §1, §3

NKp44-Ig = biological target: T4, NKp44-Ig (Homo sapiens, UniProt O95944); test: Effect of peptides on NKp44-Ig binding to tumor cells (flow cytometry); conditions: for Effect on NKp44-Ig binding to tumor cells: 2 μg/well NKp44-Ig, 10 μg/well peptide, 1.5 hr, number in brackets is an undefined grade
T4 construct: fusion proteins containing the extracellular domains NKp30, NKp44 or NKp46 fused to the Fc portion of human IgG1
T4 sequence (O95944 22-192 limits assumed): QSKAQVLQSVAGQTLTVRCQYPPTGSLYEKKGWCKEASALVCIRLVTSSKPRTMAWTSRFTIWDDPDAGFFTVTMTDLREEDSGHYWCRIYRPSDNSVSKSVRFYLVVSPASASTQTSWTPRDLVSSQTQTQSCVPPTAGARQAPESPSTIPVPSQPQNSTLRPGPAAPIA
Method: as §1
Target cells were incubated for 1.5 hr with 2 μg/well NKp44-Ig and 10 μg/well of each peptide. NKp44-Ig binding intensity was determined by flow cytometry, using fluorescent 2Ab (goat anti-mouse mAb).
as §3

human cancer cells = test: Direct binding of biotin-conjugated NKp44-derived peptides to human cancer cells (flow cytometry); conditions: biotin-conjugated peptide 10 μg/well; number in brackets is an undefined grade
NKp30-Ig = biological target: T5, NKp30-Ig (Homo sapiens, UniProt O14931); test: Effect of peptide on NKp30-Ig binding to HeLa cells (flow cytometry); conditions: pep4 0.625 to 10 μg/well, FIG. 9D
T5 construct: fusion proteins containing the extracellular domains NKp30, NKp44 or NKp46 fused to the Fc portion of human IgG1; made in house
T5 sequence (O14931 19-135 limits assumed): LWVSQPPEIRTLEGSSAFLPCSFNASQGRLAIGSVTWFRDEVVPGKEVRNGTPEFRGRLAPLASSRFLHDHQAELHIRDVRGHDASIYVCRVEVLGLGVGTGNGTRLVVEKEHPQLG
Method: as §1, with “target cells were incubated with 2 μg of the NK receptor-Ig and 5 or 10 μg of the peptides in staining solution consisting” left out
as §3

human primary NK cells = test: CD107a (LAMP-1) degranulation assay of human primary NK cells; type: cell-based; conditions: co-cultured with HeLa or 721.221 target cells for four hours at different E:T ratios; FIG. 10C, p<0.05
Method: (§4) NK cells were isolated from the peripheral blood of healthy donors using a human NK cell isolation kit (Miltenyi Biotec). NK purity was greater than 90% (CD3^−CD56^±). Purified NK cells were cultured in CellGro SCGM serum-free medium (CellGenix, 2001) supplemented with 10% heat inactivated human plasma from healthy donors, 1 mM sodium pyruvate, 2 mM L-glutamine, MEM non-essential amino acids, 1% penicillin/streptomycin, 10 mM HEPES (Gibco™) and 300 IU/ml of human IL-2 (Biological Industries Israel Ltd).
The flow cytometry cytotoxicity assay was previously described (Flodstrom et al. Diabetes 48, 706-713 (1999)). Effector human primary NK cells were labeled with CellTrace CFSE (Invitrogen, C3554). Analysis of 7-AAD for negative-CFSE target tumor cells was performed using a FACSCantoII and data were analyzed by Diva 6.1.2. For blocking experiments, NK cells were pre-incubated with mouse polyclonal anti-NKp46 serum or with naive serum 30 min at 4° C. before being combined with target cells. The NK degranulation assay was performed as previously described (Raulet, D. H. Nat Rev Immunol 3, 781-790 (2003); Biassoni, R. et al. Eur J Immunol 29, 1014-1020 (1999)). […]

[2] = test system: NKp46-expressing NK cells; test: Flow cytometry cytotoxicity assay: lysis of target tumor cells by human primary NK cells; type: cell-based
Method: as §4
The flow cytometry cytotoxicity assay was previously described (Flodstrom et al. Diabetes 48, 706-713 (1999)). Effector human primary NK cells were labeled with CellTrace CFSE (Invitrogen, C3554). Analysis of 7-AAD for negative-CFSE target tumor cells was performed using a FACSCantoII and data were analyzed by Diva 6.1.2. For blocking experiments, NK cells were pre-incubated with mouse polyclonal anti-NKp46 serum or with naive serum 30 min at 4° C. before being combined with target cells. The NK degranulation assay was performed as previously described (Raulet, D. H. Nat Rev Immunol 3, 781-790 (2003); Biassoni, R. et al. Eur J Immunol 29, 1014-1020 (1999)).
Next, the influence of the peptide of SEQ ID NO: 4 on NK cells function was investigated. Target HeLa cells were plated and pep4 or mock peptide was added just before adding an effector human primary NK cell line. […] To verify that the peptide of SEQ ID NO: 4 inhibits NKp46-mediated lysis, anti-NKp46 serum was used to block the receptor on human primary NK cells.

[3] = 2 μg/well NKp46D2-Ig, 10 μg/well peptide
[4] = HeLa cells, pep4 0.625 to 10 μg/well, FIG. 9D

TTAHR GTYRC FGSYN NHAWS (TTAHRGTYRCFGSYNNHAWS) [SEQ ID NO: 13]
Effect on NKp46D2L binding to cells (NKp46D2-Ig; [3]): enhancing NKp46D2-Ig binding
Effect on NKp46D2L binding to cells (NKp46D2-Ig; 2 μg/well NKp46D2-Ig, 10 μg/well peptide, listed as 13): Enhance (1.5)
Direct binding to cells [1]: direct binding
Direct binding to cells ([1]; listed as 13): Yes (2)
Binding of LIR1-Ig in the presence of peptide (LIR1-Ig): not affected

SMFLL LKEGR SSHVQ RGYGK (SMFLLLKEGRSSHVQRGYGK) [SEQ ID NO: 7]
Effect on NKp46D2L binding to cells (NKp46D2-Ig; [3]): enhancing NKp46D2-Ig binding
Effect on NKp46D2L binding to cells (NKp46D2-Ig; 2 μg/well NKp46D2-Ig, 10 μg/well peptide, listed as 7): Enhance (2)
Direct binding to cells [1]: direct binding
Direct binding to cells ([1]; listed as 7): Yes (1)
Binding of LIR1-Ig in the presence of peptide (LIR1-Ig): not affected

TFYCR LDTAT SMFLL (TFYCRLDTATSMFLL) [SEQ ID NO: 55]
NKp46-Ig binding to tumor cells in the presence of peptide (NKp46-Ig): also inhibited

LDTAT SMFLL LKEGR SSHVQ (LDTATSMFLLLKEGRSSHVQ) [SEQ ID NO: 6]
Effect on NKp46D2L binding to cells (NKp46D2-Ig; [3]): inhibiting binding
Effect on NKp46D2L binding to cells (NKp46D2-Ig; 2 μg/well NKp46D2-Ig, 10 μg/well peptide, listed as 6): Suppress (1)
Direct binding to cells [1]: No
Binding of LIR1-Ig in the presence of peptide (LIR1-Ig): not affected

EASAL VCIRL VTSSK PRTVA (EASALVCIRLVTSSKPRTVA) [SEQ ID NO: 32]
Effect on NKp44-Ig binding to tumor cells (NKp44-Ig): Enhance (1)
Direct binding to tumor cells (human cancer cells): Yes (1)

SGEKV TFYCR LDTAT SMFLL (SGEKVTFYCRLDTATSMFLL) [SEQ ID NO: 4]
Effect on NKp46D2L binding to cells (NKp46D2-Ig; [3]): inhibiting binding
Effect on NKp46D2L binding to cells (NKp46D2-Ig; 2 μg/well NKp46D2-Ig, 10 μg/well peptide, listed as 4): Suppress (2)
Binding of NKp46D2-Ig to HeLa cells upon co-incubation with peptide (NKp46D2-Ig; Example 3, FIG. 9A, 2 μg/well NKp46D2-Ig, 10 μg/well peptide): inhibited binding
Inhibition of rNKp46 binding across tumor cell lines (NKp46D2-Ig; HeLa, PC-3, HEK293T, 721.221, CHO-K1 and MIN-6 cells, FIG. 9C): evident for numerous tumor cell lines
Binding inhibition of NKp44-Ig (NKp44-Ig; [4]): did not induce significant binding inhibition
NKp46-Ig binding to tumor cells in the presence of peptide (NKp46-Ig): inhibited
Binding inhibition of NKp30-Ig (NKp30-Ig): did not induce significant binding inhibition
Percentage of CD107a+ NK cells (human primary NK cells): significantly reduced
Direct binding to cells [1]: No
Binding of LIR1-Ig in the presence of peptide (LIR1-Ig): not affected
Binding inhibition of LIR1-Ig (LIR1-Ig; [4]): did not induce significant binding inhibition
Lysis of target 721.221 and CHO-K1 cells by NK cells ([2]; 721.221 and CHO-K1 target cells): inhibition of lysis
Lysis of target cells by NKp46-expressing NK cells ([2]; Example 1): inhibit lysis
Blocking effect of anti-NKp46 serum on lysis when the peptide was present ([2]; anti-NKp46 serum compared to control serum, FIG. 10B): no blocking effect was observed
Lysis of target cells in the presence of control serum ([2]; compared to control peptide, 15:1 E:T, FIG. 10B, p<0.01): inhibited lysis
Lysis of target HeLa cells by human primary NK cell line ([2]; compared to mock1, 4 hr, FIG. 10A, p<0.01): significantly suppressed

VTSSK PRTVA WTSRF TIWDD (VTSSKPRTVAWTSRFTIWDD) [SEQ ID NO: 34]
Effect on NKp44-Ig binding to tumor cells (NKp44-Ig): inhibiting binding
Effect on NKp44-Ig binding to tumor cells (NKp44-Ig; listed as 34): Suppress (1.5)
Direct binding to tumor cells (human cancer cells): No

KGWCK EASAL VCIRL VTSSK (KGWCKEASALVCIRLVTSSK) [SEQ ID NO: 31]
Effect on NKp44-Ig binding to tumor cells (NKp44-Ig): Enhance (1)
Direct binding to tumor cells (human cancer cells): Yes (1)

TFYCR LDTAT SMFLL LKEGR (TFYCRLDTATSMFLLLKEGR) [SEQ ID NO: 5]
Effect on NKp46D2L binding to cells (NKp46D2-Ig; [3]): inhibiting binding
Effect on NKp46D2L binding to cells (NKp46D2-Ig; 2 μg/well NKp46D2-Ig, 10 μg/well peptide, listed as 5): Suppress (2)
NKp46-Ig binding to tumor cells in the presence of peptide (NKp46-Ig): inhibited
Direct binding to cells [1]: No
Binding of LIR1-Ig in the presence of peptide (LIR1-Ig): not affected

VCIRL VTSSK PRIMA WTSRF (VCIRLVTSSKPRTMAWTSRF) [SEQ ID NO: 33]
Effect on NKp44-Ig binding to tumor cells (NKp44-Ig): Enhance (1)

PLGPV TTAHR GTYRC FGSYN (PLGPVTTAHRGTYRCFGSYN) [SEQ ID NO: 12]
Effect on NKp46D2L binding to cells (NKp46D2-Ig; [3]): enhancing NKp46D2-Ig binding
Effect on NKp46D2L binding to cells (NKp46D2-Ig; 2 μg/well NKp46D2-Ig, 10 μg/well peptide, listed as 12): Enhance (3)
Direct binding to cells [1]: direct binding
Direct binding to cells ([1]; listed as 12): Yes (3)
Binding of LIR1-Ig in the presence of peptide (LIR1-Ig): not affected
